Our source for the Kd values is paper PMC10704370.

In general, Kd refers to the free concentration of one partner at which half of the binding sites on the other are occupied at equilibrium, for simple one-to-one binding. Low values mean higher affinity, high ones lower affinity.

This assay addresses YmgB (purified, biotinylated) (Escherichia coli) (UniProt P75993). The assay is described as follows: BLI; biotinylated YmgB or YmgB^R74G immobilised on streptavidin biosensors, SpoT^TGS-Helical 2-50 μM as analyte; Blitz, 25 °C; 50 mM Tris-HCl pH 8.0, 500 mM NaCl, 500 mM KCl, 2 mM β-mercaptoethanol, 2% glycerol, BSA 1 mg/ml; KD from steady-state responses, one site model. A general note: BLI is a label-free optical method that tracks binding on a fibre tip over time.
Sequence of UniProt P75993 (P75993 whole entry): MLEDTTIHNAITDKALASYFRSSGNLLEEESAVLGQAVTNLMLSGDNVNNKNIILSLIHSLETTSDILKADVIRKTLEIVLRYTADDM

Substance “SpoT^TGS-Helical (purified) (domain or fragment)” had a Kd of 8.73 µM.
